Measured values as given in patent US20120128758A1.

Target: mAb 2F5
Experiment: cell-based or functional assay

QQEKNEQELLELDKWASLWN (modifications not checked) [SP62 peptide (gp41 652-671), …]
IC50 of 2F5 mAb against TND-669S pseudovirus after pre-absorption with 0.3 µM peptide: 0.911 µg/mL
